Laboratory results as given in patent US20220089698A1 (published 2022).

B1: 1.30.1-1 (antibody, human IgG1, kappa)
heavy: QVQLLQSGAAVTKPGASVRVSCEASGYNIRDYFIHWWRQAPGQGLQWVGWINPKTGQPNNPRQFQGRVSLTRHASWDFDTFSFYMDLKALRSDDTAVYFCARQRSDYWDFDVWGSGTMVTVSSASTKGPSVFPLAPSSKSTSGGTAALGCLVKDYFPEPVTVSWNSGALTSGVHTFPAVLQSSGLYSLSSVVTVPSSSLGTQTYICNVNHKPSNTKVDKKVEPKSCDKTHTCPPCPAPELLAGPDVFLFPPKPKDTLMISRTPEVTCVVVDVSHEDPEVKFNWYVDGVEVHNAKTKPREEQYNSTYRVVSVLTVLHQDWLNGKEYKCKVSNKALPLPEEKTISKAKGQPREPQVYTLPPSREEMTKNQVSLTCLVKGFYPSDIAVEWESNGQPENNYKTTPPVLDSDGSFFLYSKLTVDKSRWQQGNVFSCSVLHEALHSHYTQKSLSLSPGK
light: DIQMTQSPSSLSASVGDTVTITCQANGYLNWYQQRRGKAPKLLIYDGSKLERGVPSRFSGRRWGQEYNLTINNLQPEDIATYFCQVYEFVVPGTRLDLKRTVAAPSVFIFPPSDEQLKSGTASVVCLLNNFYPREAKVQWKVDNALQSGNSQESVTEQDSKDSTYSLSSTLTLSKADYEKHKVYACEVTHQGLSSPVTKSFNRGEC
B2: 1.1.5-1 (antibody, human IgG1, kappa)
heavy: QVQLLQSGAAVTKPGASVRVSCEASGYNIRDYFIHWWRQAPGQGLQWVGWINPKTGQPNNPRQFQGRVSLTRHASWDFDTFSFYMDLKALRSDDTAVYFCARQRSDYWDFDVWGSGTQVTVSSASTKGPSVFPLAPSSKSTSGGTAALGCLVKDYFPEPVTVSWNSGALTSGVHTFPAVLQSSGLYSLSSVVTVPSSSLGTQTYICNVNHKPSNTKVDKKVEPKSCDKTHTCPPCPAPELLAGPDVFLFPPKPKDTLMISRTPEVTCVVVDVSHEDPEVKFNWYVDGVEVHNAKTKPREEQYNSTYRVVSVLTVLHQDWLNGKEYKCKVSNKALPLPEEKTISKAKGQPREPQVYTLPPSREEMTKNQVSLTCLVKGFYPSDIAVEWESNGQPENNYKTTPPVLDSDGSFFLYSKLTVDKSRWQQGNVFSCSVLHEALHSHYTQKSLSLSPGK
light: DIQMTQSPSSLSASVGDTVTITCQANGYLNWYQQKPGKAPKLLIYDGSKLERGVPSRFSGRRWGQEYNLTINNLQPEDIATYFCQVYEFVVPGTRLDLKRTVAAPSVFIFPPSDEQLKSGTASVVCLLNNFYPREAKVQWKVDNALQSGNSQESVTEQDSKDSTYSLSSTLTLSKADYEKHKVYACEVTHQGLSSPVTKSFNRGEC
B3: 1.1.9-1 (antibody, human IgG1, kappa)
heavy: QVQLLQSGAAVTKPGASVRVSCEASGYNIRDYFIHWWRQAPGQGLQWVGWINPKTGQPNNPRQFQGRVSLTRHASWDFDTFSFYMDLKALRSDDTAVYFCARQRSDYWDFDVWGSGTQVTVSSASTKGPSVFPLAPSSKSTSGGTAALGCLVKDYFPEPVTVSWNSGALTSGVHTFPAVLQSSGLYSLSSVVTVPSSSLGTQTYICNVNHKPSNTKVDKKVEPKSCDKTHTCPPCPAPELLAGPDVFLFPPKPKDTLMISRTPEVTCVVVDVSHEDPEVKFNWYVDGVEVHNAKTKPREEQYNSTYRVVSVLTVLHQDWLNGKEYKCKVSNKALPLPEEKTISKAKGQPREPQVYTLPPSREEMTKNQVSLTCLVKGFYPSDIAVEWESNGQPENNYKTTPPVLDSDGSFFLYSKLTVDKSRWQQGNVFSCSVLHEALHSHYTQKSLSLSPGK
light: DIQMTQSPSSLSASVGDTVTITCQANGYLNWYQQRRGKAPKLLIYDGSKLETGVPSRFSGRRWGQEYNLTINNLQPEDIATYFCQVYEFVVPGTRLDLKRTVAAPSVFIFPPSDEQLKSGTASVVCLLNNFYPREAKVQWKVDNALQSGNSQESVTEQDSKDSTYSLSSTLTLSKADYEKHKVYACEVTHQGLSSPVTKSFNRGEC
B4: 1.1.8-1 (antibody, human IgG1, kappa)
heavy: QVQLLQSGAAVTKPGASVRVSCEASGYNIRDYFIHWWRQAPGQGLQWVGWINPKTGQPNNPRQFQGRVSLTRHASWDFDTFSFYMDLKALRSDDTAVYFCARQRSDYWDFDVWGSGTQVTVSSASTKGPSVFPLAPSSKSTSGGTAALGCLVKDYFPEPVTVSWNSGALTSGVHTFPAVLQSSGLYSLSSVVTVPSSSLGTQTYICNVNHKPSNTKVDKKVEPKSCDKTHTCPPCPAPELLAGPDVFLFPPKPKDTLMISRTPEVTCVVVDVSHEDPEVKFNWYVDGVEVHNAKTKPREEQYNSTYRVVSVLTVLHQDWLNGKEYKCKVSNKALPLPEEKTISKAKGQPREPQVYTLPPSREEMTKNQVSLTCLVKGFYPSDIAVEWESNGQPENNYKTTPPVLDSDGSFFLYSKLTVDKSRWQQGNVFSCSVLHEALHSHYTQKSLSLSPGK
light: DIQMTQSPSSLSASVGDTVTITCQANGYLNWYQQRRGKAPKLLIYDASNLERGVPSRFSGRRWGQEYNLTINNLQPEDIATYFCQVYEFVVPGTRLDLKRTVAAPSVFIFPPSDEQLKSGTASVVCLLNNFYPREAKVQWKVDNALQSGNSQESVTEQDSKDSTYSLSSTLTLSKADYEKHKVYACEVTHQGLSSPVTKSFNRGEC
B5: 1.1.3-1 (antibody, human IgG1, kappa)
heavy: QVQLLQSGAAVTKPGASVRVSCEASGYNIRDYFIHWWRQAPGQGLQWVGWINPKTGQPNNPRQFQGRVSLTRHASWDFDTFSFYMDLKALRSDDTAVYFCARQRSDYWDFDVWGSGTQVTVSSASTKGPSVFPLAPSSKSTSGGTAALGCLVKDYFPEPVTVSWNSGALTSGVHTFPAVLQSSGLYSLSSVVTVPSSSLGTQTYICNVNHKPSNTKVDKKVEPKSCDKTHTCPPCPAPELLAGPDVFLFPPKPKDTLMISRTPEVTCVVVDVSHEDPEVKFNWYVDGVEVHNAKTKPREEQYNSTYRVVSVLTVLHQDWLNGKEYKCKVSNKALPLPEEKTISKAKGQPREPQVYTLPPSREEMTKNQVSLTCLVKGFYPSDIAVEWESNGQPENNYKTTPPVLDSDGSFFLYSKLTVDKSRWQQGNVFSCSVLHEALHSHYTQKSLSLSPGK
light: EIQMTQSPSSLSASVGDTVTITCQANGYLNWYQQRRGKAPKLLIYDGSKLERGVPSRFSGRRWGQEYNLTINNLQPEDIATYFCQVYEFVVPGTRLDLKRTVAAPSVFIFPPSDEQLKSGTASVVCLLNNFYPREAKVQWKVDNALQSGNSQESVTEQDSKDSTYSLSSTLTLSKADYEKHKVYACEVTHQGLSSPVTKSFNRGEC
B6: 1.1.7-1 (antibody, human IgG1, kappa)
heavy: QVQLLQSGAAVTKPGASVRVSCEASGYNIRDYFIHWWRQAPGQGLQWVGWINPKTGQPNNPRQFQGRVSLTRHASWDFDTFSFYMDLKALRSDDTAVYFCARQRSDYWDFDVWGSGTQVTVSSASTKGPSVFPLAPSSKSTSGGTAALGCLVKDYFPEPVTVSWNSGALTSGVHTFPAVLQSSGLYSLSSVVTVPSSSLGTQTYICNVNHKPSNTKVDKKVEPKSCDKTHTCPPCPAPELLAGPDVFLFPPKPKDTLMISRTPEVTCVVVDVSHEDPEVKFNWYVDGVEVHNAKTKPREEQYNSTYRVVSVLTVLHQDWLNGKEYKCKVSNKALPLPEEKTISKAKGQPREPQVYTLPPSREEMTKNQVSLTCLVKGFYPSDIAVEWESNGQPENNYKTTPPVLDSDGSFFLYSKLTVDKSRWQQGNVFSCSVLHEALHSHYTQKSLSLSPGK
light: DIQMTQSPSSLSASVGDTVTITCQANGYLNWYQQRRGKAPKLLIYDGSNLERGVPSRFSGRRWGQEYNLTINNLQPEDIATYFCQVYEFVVPGTRLDLKRTVAAPSVFIFPPSDEQLKSGTASVVCLLNNFYPREAKVQWKVDNALQSGNSQESVTEQDSKDSTYSLSSTLTLSKADYEKHKVYACEVTHQGLSSPVTKSFNRGEC
B7: 1.1.6-1 (antibody, human IgG1, kappa)
heavy: QVQLLQSGAAVTKPGASVRVSCEASGYNIRDYFIHWWRQAPGQGLQWVGWINPKTGQPNNPRQFQGRVSLTRHASWDFDTFSFYMDLKALRSDDTAVYFCARQRSDYWDFDVWGSGTQVTVSSASTKGPSVFPLAPSSKSTSGGTAALGCLVKDYFPEPVTVSWNSGALTSGVHTFPAVLQSSGLYSLSSVVTVPSSSLGTQTYICNVNHKPSNTKVDKKVEPKSCDKTHTCPPCPAPELLAGPDVFLFPPKPKDTLMISRTPEVTCVVVDVSHEDPEVKFNWYVDGVEVHNAKTKPREEQYNSTYRVVSVLTVLHQDWLNGKEYKCKVSNKALPLPEEKTISKAKGQPREPQVYTLPPSREEMTKNQVSLTCLVKGFYPSDIAVEWESNGQPENNYKTTPPVLDSDGSFFLYSKLTVDKSRWQQGNVFSCSVLHEALHSHYTQKSLSLSPGK
light: DIQMTQSPSSLSASVGDTVTITCQANGYLNWYQQRRGKAPKLLIYDASKLERGVPSRFSGRRWGQEYNLTINNLQPEDIATYFCQVYEFVVPGTRLDLKRTVAAPSVFIFPPSDEQLKSGTASVVCLLNNFYPREAKVQWKVDNALQSGNSQESVTEQDSKDSTYSLSSTLTLSKADYEKHKVYACEVTHQGLSSPVTKSFNRGEC
B8: 1.1.4-1 (antibody, human IgG1, kappa)
heavy: QVQLLQSGAAVTKPGASVRVSCEASGYNIRDYFIHWWRQAPGQGLQWVGWINPKTGQPNNPRQFQGRVSLTRHASWDFDTFSFYMDLKALRSDDTAVYFCARQRSDYWDFDVWGSGTQVTVSSASTKGPSVFPLAPSSKSTSGGTAALGCLVKDYFPEPVTVSWNSGALTSGVHTFPAVLQSSGLYSLSSVVTVPSSSLGTQTYICNVNHKPSNTKVDKKVEPKSCDKTHTCPPCPAPELLAGPDVFLFPPKPKDTLMISRTPEVTCVVVDVSHEDPEVKFNWYVDGVEVHNAKTKPREEQYNSTYRVVSVLTVLHQDWLNGKEYKCKVSNKALPLPEEKTISKAKGQPREPQVYTLPPSREEMTKNQVSLTCLVKGFYPSDIAVEWESNGQPENNYKTTPPVLDSDGSFFLYSKLTVDKSRWQQGNVFSCSVLHEALHSHYTQKSLSLSPGK
light: DIQMTQSPSSLSASVGDRVTITCQANGYLNWYQQRRGKAPKLLIYDGSKLERGVPSRFSGRRWGQEYNLTINNLQPEDIATYFCQVYEFVVPGTRLDLKRTVAAPSVFIFPPSDEQLKSGTASVVCLLNNFYPREAKVQWKVDNALQSGNSQESVTEQDSKDSTYSLSSTLTLSKADYEKHKVYACEVTHQGLSSPVTKSFNRGEC
B9: 1.1.2-1 (antibody, human IgG1)
heavy: QVQLLQSGAAVTKPGASVRVSCEASGYNIRDYFIHWWRQAPGQGLQWVGWINPKTGQPNNPRQFQGRVSLTRHASWDFDTFSFYMDLKALRSDDTAVYFCARQRSDYWDFDVWGSGTQVTVSSASTKGPSVFPLAPSSKSTSGGTAALGCLVKDYFPEPVTVSWNSGALTSGVHTFPAVLQSSGLYSLSSVVTVPSSSLGTQTYICNVNHKPSNTKVDKKVEPKSCDKTHTCPPCPAPELLAGPDVFLFPPKPKDTLMISRTPEVTCVVVDVSHEDPEVKFNWYVDGVEVHNAKTKPREEQYNSTYRVVSVLTVLHQDWLNGKEYKCKVSNKALPLPEEKTISKAKGQPREPQVYTLPPSREEMTKNQVSLTCLVKGFYPSDIAVEWESNGQPENNYKTTPPVLDSDGSFFLYSKLTVDKSRWQQGNVFSCSVLHEALHSHYTQKSLSLSPGK
VL: DIQMTQSPSSLSASVGDTVTITCQANGYLNWYQQKPGKAPKLLIYDGSKLERGVPSRFSGRRWGQEYNLTINNLQPEDIATYFCQVYEFVVPGTKVDIK

Assays:
[1] = biological target: HIV gp120 Bal (HIV); experiment: single-point ELISA; note: test concentration or dose not given here
[2] = biological target: HIV gp120 CAAN (HIV); experiment: single-point ELISA; note: test concentration or dose not given here

Binder	ELISA (A450) [1]	ELISA (A450) [2]
B1	0.81 A450	1.05 A450
B2	0.9 A450	0.9 A450
B3	0.98 A450	0.93 A450
B4	1.01 A450	0.5 A450
B5	0.97 A450	1 A450
B6	0.95 A450	1 A450
B7	0.91 A450	0.46 A450
B8	0.96 A450	1.09 A450
B9	0.95 A450	0.93 A450
